Several values for one entry are separate records, joined by “and”; a condition that tells them apart may be missing. Identical values can stand only once.
B1: Cytochrome c2, P00094 (parent)
chain: MKISLTAATVAALVLAAPAFAGDAAKGEKEFNKCKTCHSIIAPDGTEIVKGAKTGPNLYGVVGRTAGTYPEFKYKDSIVALGASGFAWTEEDIATYVKDPGAFLKEKLDDKKAKTGMAFKLAKGGEDVAAYLASVVK

Variants of: B1
Conditions: Rhodobacter capsulatus (strain ATCC BAA-309 / NBRC 16581 / SB1003); pH 7.5; 20 °C; GdnHCl; CD; Tris-HCl 20 mM; NaCl 40 mM; structure 1C2R; whole UniProt chain shown

Row | Variant | denaturant m value | denaturant midpoint (higher = more stable) | unfolding free energy
1 | MKISLTAATVAALVLAAPAFAGDAAKGEKEFNKCKTCHSIIAPDGTEIVKGAKTGPNLYGVVGRTAGTYPEFKYKDSIVALGASGFAWTEEDIATFVKDPGAFLKEKLDDKKAKTGMAFKLAKGGEDVAAYLASVVK | 2.59 kcal/mol/M and 1.43 kcal/mol/M | 1.71 M and 3.32 M | 4.42 kcal/mol and 4.75 kcal/mol
2 | MKISLTAATVAALVLAAPAFAGDAAKGEKEFNKCKTCHSIIAPDGTEIVKGAKTGPNLYGVVGRTAGTYPEFKYKDSIVALGASGFAWTEEDIATCVKDPGAFLKEKLDDKKAKTGMAFKLAKGGEDVAAYLASVVK | 2.57 kcal/mol/M and 1.96 kcal/mol/M | 1.44 M and 2.24 M | 3.71 kcal/mol and 4.4 kcal/mol

— FireProtDB (doi:10.1021/bi00231a002)
